The text below walks through data of paper PMC5408392.

What all share (assay): SEC-MALS; SEC followed by multiangle light scattering of the SEC-purified Δ123 species
Experiment [1] deals with Δ123 E2 dimer (G1a strain H77c) (hepatitis C virus genotype 1a, strain H77c) (UniProt P27958).
Experiment [2] deals with Δ123 E2 high-molecular-weight form 1 (HMW1, G1a strain H77c) (hepatitis C virus genotype 1a, strain H77c) (UniProt P27958).
Experiment [3] addresses Δ123 E2 high-molecular-weight form 2 (HMW2, G1a strain H77c) (hepatitis C virus genotype 1a, strain H77c) (UniProt P27958).

As to “Δ123 E2 dimer (G1a strain H77c) (from UniProt P27958 384-661) (domain or fragment)”, in experiment [1], the stoichiometry N (as a rule, a count of units in the complex or per binding partner) amounted to 2.1. “Δ123 E2 high-molecular-weight form 1 (HMW1, G1a strain H77c) (from UniProt P27958 384-661) (domain or fragment)” came in with a stoichiometry N in experiment [2] of 51.6. For the substance “Δ123 E2 high-molecular-weight form 2 (HMW2, G1a strain H77c) (from UniProt P27958 384-661) (domain or fragment)”, the stoichiometry N in experiment [3] came to 5.1.
